{"source": "patent US10660972B2", "about": "“Methods for coupling targeting peptides onto recombinant lysosomal enzymes for improved treatments of lysosomal storage diseases” (AMICUS THERAPEUTICS, INC., priority 2011, dated 2020)", "key": {"IGF-2/CI-MPR": {"target": "IGF-2/CI-MPR (Homo sapiens, UniProt P11717)", "sequence (P11717 41-2491)": "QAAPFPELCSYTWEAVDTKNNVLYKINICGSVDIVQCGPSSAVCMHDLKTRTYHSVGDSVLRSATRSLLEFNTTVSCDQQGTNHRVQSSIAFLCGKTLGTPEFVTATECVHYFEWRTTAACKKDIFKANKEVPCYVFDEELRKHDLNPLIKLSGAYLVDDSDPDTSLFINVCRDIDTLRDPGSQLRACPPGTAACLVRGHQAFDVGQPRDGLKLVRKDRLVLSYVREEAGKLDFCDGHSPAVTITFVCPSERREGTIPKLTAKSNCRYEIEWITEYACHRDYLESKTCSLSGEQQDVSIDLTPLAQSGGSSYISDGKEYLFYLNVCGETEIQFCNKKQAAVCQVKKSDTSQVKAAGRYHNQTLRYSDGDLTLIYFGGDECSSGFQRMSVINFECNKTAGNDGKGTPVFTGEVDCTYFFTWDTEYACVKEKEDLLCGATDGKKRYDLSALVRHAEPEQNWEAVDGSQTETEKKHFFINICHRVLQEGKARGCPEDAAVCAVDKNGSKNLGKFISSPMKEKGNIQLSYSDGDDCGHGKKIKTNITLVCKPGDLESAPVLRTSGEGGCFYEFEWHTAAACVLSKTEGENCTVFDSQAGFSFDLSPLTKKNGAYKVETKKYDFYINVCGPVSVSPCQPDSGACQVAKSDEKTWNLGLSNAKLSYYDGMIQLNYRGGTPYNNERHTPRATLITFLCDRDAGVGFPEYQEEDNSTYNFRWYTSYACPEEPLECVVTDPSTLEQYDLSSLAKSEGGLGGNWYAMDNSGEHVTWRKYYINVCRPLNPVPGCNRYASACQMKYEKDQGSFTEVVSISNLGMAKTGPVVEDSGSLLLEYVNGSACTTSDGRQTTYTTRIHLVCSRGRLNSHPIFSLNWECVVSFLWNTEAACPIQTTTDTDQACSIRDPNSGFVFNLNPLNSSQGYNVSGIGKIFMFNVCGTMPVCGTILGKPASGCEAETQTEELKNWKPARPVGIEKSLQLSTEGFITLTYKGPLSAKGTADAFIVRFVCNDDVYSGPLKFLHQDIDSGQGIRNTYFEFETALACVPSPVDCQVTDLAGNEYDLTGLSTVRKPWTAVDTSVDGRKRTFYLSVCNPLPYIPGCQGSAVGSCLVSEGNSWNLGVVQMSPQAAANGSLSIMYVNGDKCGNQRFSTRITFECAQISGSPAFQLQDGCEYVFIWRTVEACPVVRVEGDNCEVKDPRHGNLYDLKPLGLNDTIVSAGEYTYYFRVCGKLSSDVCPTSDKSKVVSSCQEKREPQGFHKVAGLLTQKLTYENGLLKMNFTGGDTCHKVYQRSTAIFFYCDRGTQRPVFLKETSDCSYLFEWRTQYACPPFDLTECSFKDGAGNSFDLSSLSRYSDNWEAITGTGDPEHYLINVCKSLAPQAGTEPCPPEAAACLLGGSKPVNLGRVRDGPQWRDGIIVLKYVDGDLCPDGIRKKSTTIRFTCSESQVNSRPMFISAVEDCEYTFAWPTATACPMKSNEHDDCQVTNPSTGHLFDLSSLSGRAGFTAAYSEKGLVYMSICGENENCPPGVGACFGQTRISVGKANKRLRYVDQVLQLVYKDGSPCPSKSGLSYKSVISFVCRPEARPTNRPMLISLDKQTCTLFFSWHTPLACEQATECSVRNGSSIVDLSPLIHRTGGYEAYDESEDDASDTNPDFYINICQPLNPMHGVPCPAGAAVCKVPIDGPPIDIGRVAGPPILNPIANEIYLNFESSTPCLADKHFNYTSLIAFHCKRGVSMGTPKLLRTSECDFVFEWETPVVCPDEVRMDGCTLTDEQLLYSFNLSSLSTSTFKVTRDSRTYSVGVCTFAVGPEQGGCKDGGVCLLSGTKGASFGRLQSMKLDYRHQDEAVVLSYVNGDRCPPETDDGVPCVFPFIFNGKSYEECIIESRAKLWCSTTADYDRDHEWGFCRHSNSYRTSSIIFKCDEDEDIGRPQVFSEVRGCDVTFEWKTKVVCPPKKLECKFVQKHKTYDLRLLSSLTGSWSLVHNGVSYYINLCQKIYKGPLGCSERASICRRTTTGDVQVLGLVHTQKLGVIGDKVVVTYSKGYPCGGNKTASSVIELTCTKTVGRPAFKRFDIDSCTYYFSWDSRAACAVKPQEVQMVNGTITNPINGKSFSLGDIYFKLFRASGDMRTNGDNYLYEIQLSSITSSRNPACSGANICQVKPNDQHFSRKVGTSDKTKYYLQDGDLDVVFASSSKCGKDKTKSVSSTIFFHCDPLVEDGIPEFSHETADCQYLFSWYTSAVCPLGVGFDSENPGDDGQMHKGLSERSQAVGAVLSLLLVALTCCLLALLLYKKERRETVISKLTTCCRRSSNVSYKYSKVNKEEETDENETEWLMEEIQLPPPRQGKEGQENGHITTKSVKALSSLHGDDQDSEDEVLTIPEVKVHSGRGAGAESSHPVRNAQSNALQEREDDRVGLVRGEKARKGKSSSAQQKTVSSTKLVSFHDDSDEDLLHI", "conditions": "cited from earlier work; for Kd: ligand affinity for IGF-2/CI-MPR, read-out: Binding Affinity (Apparent Kd; nM)"}, "Pompe disease": {"tested_on": "Pompe disease", "conditions": "40 mg/kg every other week; cited from earlier work"}, "IGF-1 receptor": {"target": "IGF-1 receptor (Homo sapiens, UniProt P08069)", "conditions": "compared to the IGF-2/CI-MPR; cited from earlier work"}, "insulin receptor": {"target": "insulin receptor (Homo sapiens, UniProt P06213)", "conditions": "compared to the IGF-2/CI-MPR; cited from earlier work"}, "[1]": {"conditions": "human, in vivo; cited from earlier work"}, "[2]": {"tested_on": "serum IGF binding proteins (IGFBPs)", "assay": "Binding to serum IGF binding proteins, inferred from uptake in serum-containing medium", "type": "cell-based", "conditions": "inferred from internalization in medium with 10% FBS", "description": "To assess the functional effects of IGF2 peptide for the cellular uptake of exogenous lysosomal enzymes, the internalization of IGF2-conjugated rbGAA (vIGF2-rhGAA) was evaluated in L6 rat skeletal muscle myoblasts. Briefly, L6 myoblasts were expanded in T-75 flasks to confluence in DMEM medium containing 10% fetal bovine serum (FBS) at 37 C and a 5% CO2 environment. The cells were harvested via trypsin/EDTA and plated in 6-well tissue culture plates at a cell density of 3×10^5 cells per well and incubated in DMEM/10% […] medium. Two hours prior to the addition of lysosomal enzymes, the spent DMEM 10% FBS medium was replaced with 2.5 ml uptake medium (Ham's F-12/10% FBS/2 mM PIPES, pH 6.7). Unconjugated rhGAA and vIGF2-rhGAA were diluted to 0.5 mg/ml with 50 mM sodium phosphate, pH 6.5/100 mM NaCl/0.05%>Polysorbate-80 and sterilized through a 0.2 μm filter spin device (Costar). Unconjugated rhGAA was added to individual wells at final protein concentrations of 10-200 nM while vIGF2-rhGAA was added at 2-25 nM. To ensure that all wells had the same volume and correct protein concentration, 50 mM sodium phosphate, pH 6.5/100 mM NaCl/0.05% Polysorbate-80 buffer was added so that the total volume of enzyme and buffer was 0.2 ml for each sample."}, "[3]": {"assay": "Solubility and stability of protein preparations in acidic buffer", "type": "physicochemical", "source_text": "(§1) The high-mannose type N-glycans on rhGAA is problematic because it is believed that these carbohydrates cause the protein to be rapidly cleared from the circulation via macrophage and splenic mannose receptors. […] Deglycosylation of rhGAA can be performed after the enzyme is modified with S-Hynic and purified (via size exclusion chromatography or dialysis to remove excess crosslinker). This strategy allows for complete deglycosylation of rhGAA over 1-5 days using EndoF or EndoH without affecting enzyme activity. The deglycosylated hydrazide-modified rhGAA is then conjugated to PEG4-benzaldehyde-modified IGF-2 peptides. Alternatively, rhGAA deglycosylation can be performed concurrently during the conjugation of PEG4-benzaldehyde-modified IGF-2 peptide to hydrazide-modified rhGAA using high concentrations of EndoF or EndoH. Deglycosylated, IGF2 peptide-conjugated rhGAA is then purified by gel filtration chromatography or dialysis to remove excess […] IGF-2 peptides and stored in acidic pH buffer (50 mM sodium phosphate, pH 6.2/100 mM NaCl/0.05% Polysorbate-80). The ideal method to remove high-mannose N-glycans from yeast-derived rhGAA would be to co-express EndoH with the lysosomal enzyme for deglycoylation in vivo prior to protein purification of rhGAA. […]"}, "[4]": {"tested_on": "lysosomal enzyme activity (rhGAA, I2S)", "assay": "Enzyme activity of lysosomal enzyme after conjugation or deglycosylation", "type": "biochemical, human", "source_text": "as §1, with “Polysorbate-80).” for “Polysorbate-80). The ideal method to remove high-mannose N-glycans from yeast-derived rhGAA would be to co-express EndoH with the lysosomal enzyme for deglycoylation in vivo prior to protein purification of rhGAA.”\nTo assess the functional effects of IGF2 peptide for the cellular uptake of exogenous lysosomal enzymes, the internalization of IGF2-conjugated rbGAA (vIGF2-rhGAA) was evaluated in L6 rat skeletal muscle myoblasts. […]"}}, "note": "Where “and” joins values, the source holds several entries; their conditions need not be identical. Identical values can stand only once.", "data": [{"compound": "O=C[C@@H](O)[C@@H](O)[C@H](O)[C@H](O)COP(=O)(O)O", "note": "[free M6P, mannose 6-phosphate]", "values": [{"measurement": "Kd", "setting": "IGF-2/CI-MPR", "value": 7000, "unit": "nM"}]}, {"compound": "Myozyme: recombinant human acid α-glucosidase, rhGAA; Genzyme Corp.", "values": [{"measurement": "clinical effectiveness in Pompe disease", "setting": "Pompe disease", "value": "only moderately effective"}]}, {"compound": "WT hIGF-2: wildtype human insulin-like growth factor 2 peptide", "values": [{"measurement": "fold lower affinity for IGF-1 receptor compared to IGF-2/CI-MPR", "setting": "IGF-1 receptor", "value": "~230", "unit": "fold"}, {"measurement": "Kd", "setting": "IGF-2/CI-MPR", "value": "0.03 to 0.2", "unit": "nM"}, {"measurement": "fold higher affinity for IGF-2/CI-MPR than mono-M6P N-glycan", "setting": "IGF-2/CI-MPR; relative to mono-M6P N-glycan", "value": "approximately 230,000 fold"}, {"measurement": "fold lower affinity for insulin receptor compared to IGF-2/CI-MPR", "setting": "insulin receptor", "value": "~100", "unit": "fold"}, {"measurement": "safety in clinical trials", "setting": "[1]", "value": "shown to be safe"}]}, {"compound": "[Leu27] hIGF-2: human IGF-2 with substitution of leucine for tyrosine at position 27", "values": [{"measurement": "Kd", "setting": "IGF-2/CI-MPR", "value": "0.05 nM and 0.06 nM"}]}, {"compound": "[del(1-4), Arg6, Leu27, Arg65] IGF-2 [variant IGF2 peptide]", "values": [{"measurement": "binding affinity to serum IGF binding proteins (IGFBPs)", "setting": "[2]", "value": "low binding affinity"}, {"measurement": "stability of conjugated peptide in acidic buffers", "setting": "[3]; acidic buffers required for maintaining lysosomal enzyme activities", "value": "stable and maintains proper protein structure"}]}, {"compound": "rhGAA: Recombinant human acid α-glucosidase", "values": [{"measurement": "effect of chemical conjugation of variant IGF2 peptide on enzyme activity", "setting": "[4]; after conjugation of variant IGF2 peptide (data not shown)", "value": "did not affect enzyme activity"}, {"measurement": "enzyme activity after removal of N-glycans", "setting": "[4]; deglycosylated with EndoF or EndoH, native conditions (data not shown)", "value": "completely active"}, {"measurement": "solubility after removal of N-glycans", "setting": "[3]; deglycosylated with EndoF or EndoH (data not shown)", "value": "remain soluble"}]}]}
